Assays:
Details in all cases: chain copies: 4
A118 recombinase [1] = molecular target: T1, A118 recombinase (Listeria monocytogenes phage A118); experiment: cell_activity; attP x attB recombination with N8, tobacco BY2 protoplasts; also active in mammalian cells
T1 chain: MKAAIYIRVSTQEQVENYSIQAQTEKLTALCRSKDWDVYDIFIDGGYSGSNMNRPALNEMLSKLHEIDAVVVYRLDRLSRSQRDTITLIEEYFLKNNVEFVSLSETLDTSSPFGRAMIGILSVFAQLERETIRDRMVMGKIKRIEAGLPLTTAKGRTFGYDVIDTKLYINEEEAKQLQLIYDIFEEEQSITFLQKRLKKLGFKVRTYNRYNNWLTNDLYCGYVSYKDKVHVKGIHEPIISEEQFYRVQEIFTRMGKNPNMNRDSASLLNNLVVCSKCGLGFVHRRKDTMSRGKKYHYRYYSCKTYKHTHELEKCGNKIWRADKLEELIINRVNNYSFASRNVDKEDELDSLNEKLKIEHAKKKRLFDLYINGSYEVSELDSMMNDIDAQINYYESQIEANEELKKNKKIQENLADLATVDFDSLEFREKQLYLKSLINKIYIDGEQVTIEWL
Description: (§1) Cell suspension cultures of Nicotiana tobacum BY2 were maintained in MS medium in the dark and subcultured weekly (Nagata, T., T. Nemoto, and S. Hasezawa. 1992. Tobacco BY-2 cell line as the Hela cell in the cell biology of higher plants. Intl. Rev. Cytol., 132:1-30). Protoplasts prepared from 3 day-old cultures were resuspended in 0.4 M mannitol and distributed into 35 mm petri dishes in 1 mL aliquots (˜5×10⁵ cells). Protoplasts were mixed with plasmid DNA and electroporated at 0.56 K Volts for 80μ seconds using a square wave electroporation system with Petripulser electrode (BTX, San Diego, Calif., USA). The cells were transfected with 10 μg for the intramolecular recombination test plasmid and 0 or 10 μg for the recombinase expression plasmid. Following the electroporation, protoplasts were diluted with 1 mL of 2× protoplast culture medium (Watanabe, Y., T. Meshi, and Y. Okada. 1987. Infection of tobacco protoplasts with in vitro transcribed tobacco mosaic virus RNA using an improved electroporation method. Virology, 192:264-272), aliquotted as two 1 mL cultures, and incubated at 27° C. for 17 h. Protoplasts were lysed by freeze thawing and addition of 250 μL 5× passive lysis buffer (Promega, Madison, Wis., USA). Twenty μL of cell extract was assayed for luciferase activity using Dual Luciferase Assay kit on a plate reader equipped with injectors. […]

Bxb1 recombinase = molecular target: T2, Bxb1 recombinase (Mycobacterium smegmatis phage Bxb1); experiment: cell_activity; partner of N5, NIH3T3; chromosomal integration also seen (Tables 1-2)
T2 chain: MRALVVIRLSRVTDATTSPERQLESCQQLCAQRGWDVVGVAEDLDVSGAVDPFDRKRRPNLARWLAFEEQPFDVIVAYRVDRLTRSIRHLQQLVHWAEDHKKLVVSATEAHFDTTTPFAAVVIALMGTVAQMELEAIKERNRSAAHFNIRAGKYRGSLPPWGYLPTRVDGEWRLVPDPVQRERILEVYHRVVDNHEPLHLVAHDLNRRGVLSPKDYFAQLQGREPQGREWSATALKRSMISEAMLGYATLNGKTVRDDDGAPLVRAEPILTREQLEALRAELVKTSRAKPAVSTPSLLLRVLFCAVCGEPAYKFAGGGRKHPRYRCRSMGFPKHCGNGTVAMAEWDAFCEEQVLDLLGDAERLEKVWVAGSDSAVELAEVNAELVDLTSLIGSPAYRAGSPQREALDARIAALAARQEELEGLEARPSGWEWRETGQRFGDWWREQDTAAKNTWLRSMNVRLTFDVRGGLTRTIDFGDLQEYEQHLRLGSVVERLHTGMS
Description: Cells were maintained at 37° C. and 5% CO₂ in DMEM supplemented with 10% fetal bovine serum and 1% penicillin/streptomycin (obtained from Invitrogen, Carlsbad, Calif.) or in other media as indicated. On the day of transfection, cells were plated at different densities depending on the cell type used. The cells were transfected with intramolecular recombination assay plasmid alone or along with varying amounts of recombinase expression plasmid DNA using Lipofectamine 2000™ according to the manufacturers instructions (Invitrogen, Carlsbad, Calif.). Constitutively expressed Renilla luciferase reporter plasmid (pRL-CMV from Promega, Madison, Wis.) was co-transfected (2 ng/well) and used as an internal control to normalize the data. Twenty-four or forty-eight hours after transfection (depending on the cell line), media was discarded and cells were lysed with passive lysis buffer (Promega, Madison, Wis.). Extracts were then assayed using Dual Luciferase Assay kit (Promega, Madison, Wis.) on a plate reader equipped with injectors (Dynex Technologies, Chantilly, Va.). The data shown are the ratios of luciferase (Luc) and Renilla luciferase (RLuc) activities, unless noted otherwise. Similar results were observed when Luc activities (relative light units) were compared (data not shown). […]

A118 recombinase [2] = molecular target: T1, A118 recombinase; experiment: cell_activity; partner of N7, tobacco BY2 protoplasts; chromosomal integration also seen (Tables 1-2)
Description: as §1

B1: A118 attP (dsDNA)
DNA 1: ACGCTAGTAGCTTGTTTATTTAGATTGTTTAGTTCCTCGTTTTCTCTCGTTGGAAGAAGAAGAAACGAGAAACTAAAATTATAAATAAAAAGTAACCTA
DNA 2: TAGGTTACTTTTTATTTATAATTTTAGTTTCTCGTTTCTTCTTCTTCCAACGAGAGAAAACGAGGAACTAAACAATCTAAATAAACAAGCTACTAGCGT
A118 recombinase [1]
  activity: 364 fold induction

B2: Bxb1 attB (dsDNA)
DNA 1: GGCCGGCTTGTCGACGACGGCGGTCTCCGTCGTCAGGATCATCCGG
DNA 2: CCGGATGATCCTGACGACGGAGACCGCCGTCGTCGACAAGCCGGCC
Bxb1 recombinase
  activity: 66 fold induction

B3: A118 attB (dsDNA)
DNA 1: TTGAGCTAATTAAAACCAGCTGTAACTTTTTCGGATCAAGCTATGAAGGACGCAAAGAGGGAACTAAACACTTAATTGGTGTTACCCATAAGCCAC
DNA 2: GTGGCTTATGGGTAACACCAATTAAGTGTTTAGTTCCCTCTTTGCGTCCTTCATAGCTTGATCCGAAAAAGTTACAGCTGGTTTTAATTAGCTCAA
A118 recombinase [2]
  activity: 364 fold induction
